Results reported in patent US20220112276A1 (Janssen / Centocor, published 2022).
Numbering of substitutions follows the chain as printed.

T1: mouse pIgR extracellular domain (ECD) (mouse, UniProt O70570 19-645)
T1 construct: Bought from R&D Systems (Cat 2800-PG-050); also called mpIgR ECD
T1 sequence: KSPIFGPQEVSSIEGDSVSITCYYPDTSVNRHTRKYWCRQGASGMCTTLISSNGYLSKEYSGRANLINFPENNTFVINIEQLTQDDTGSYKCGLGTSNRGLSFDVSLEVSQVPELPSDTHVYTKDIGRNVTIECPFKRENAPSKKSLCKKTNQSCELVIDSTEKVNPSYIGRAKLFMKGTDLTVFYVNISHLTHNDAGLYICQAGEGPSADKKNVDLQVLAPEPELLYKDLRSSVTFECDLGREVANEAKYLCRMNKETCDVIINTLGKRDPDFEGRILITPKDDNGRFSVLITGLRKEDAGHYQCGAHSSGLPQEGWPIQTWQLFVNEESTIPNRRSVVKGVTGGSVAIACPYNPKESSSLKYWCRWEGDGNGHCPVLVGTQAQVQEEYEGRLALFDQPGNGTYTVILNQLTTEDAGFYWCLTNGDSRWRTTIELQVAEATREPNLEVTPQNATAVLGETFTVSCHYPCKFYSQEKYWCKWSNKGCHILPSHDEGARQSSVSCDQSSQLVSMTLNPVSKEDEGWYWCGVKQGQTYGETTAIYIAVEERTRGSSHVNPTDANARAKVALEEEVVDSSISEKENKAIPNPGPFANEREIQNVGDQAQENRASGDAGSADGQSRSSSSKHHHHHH

T2: rat pIgR extracellular domain (rat, UniProt P15083 19-643)
T2 construct: extracellular domain
T2 sequence (looked up): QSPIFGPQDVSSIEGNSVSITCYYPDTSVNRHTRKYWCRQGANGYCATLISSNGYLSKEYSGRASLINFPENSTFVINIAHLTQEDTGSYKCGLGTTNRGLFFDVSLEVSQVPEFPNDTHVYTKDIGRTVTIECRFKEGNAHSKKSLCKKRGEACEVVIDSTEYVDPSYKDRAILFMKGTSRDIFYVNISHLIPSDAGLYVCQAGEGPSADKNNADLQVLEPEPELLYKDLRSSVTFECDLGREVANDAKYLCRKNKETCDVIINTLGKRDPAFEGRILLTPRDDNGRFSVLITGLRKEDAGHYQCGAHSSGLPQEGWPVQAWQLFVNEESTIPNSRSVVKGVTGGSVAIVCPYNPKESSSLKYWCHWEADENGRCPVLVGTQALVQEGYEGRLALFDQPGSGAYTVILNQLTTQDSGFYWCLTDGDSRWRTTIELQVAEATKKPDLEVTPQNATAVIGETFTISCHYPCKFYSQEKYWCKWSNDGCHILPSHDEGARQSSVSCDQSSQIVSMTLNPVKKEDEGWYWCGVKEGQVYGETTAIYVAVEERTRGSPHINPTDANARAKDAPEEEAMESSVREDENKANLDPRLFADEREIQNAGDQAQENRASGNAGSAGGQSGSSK

B1: 01E04R3LS VHH Mono-Fc (Fc fusion)
chain: EVQLVESGGGLVQAGDSLRLSCAASGRTFTTYVMGWFRQAPGKDREFVATITWSGSTNYKYYADPVKGRFTISRDNAKNTVYLQMNSLKPEDTAVYYCTSSTVVTDPRKLNEYAYWGQGTLVTVSSSPAPELLGGPSVFLFPPKPKDTLMISRTPEVTCVVVDVSHEDPEVKFNWYVDGVEVHNAKTKPREEQYNSTYRVVSVLTVLHQDWLNGKEYKCKVSNKALPAPIEKTISKAKGQPREPQVYTKPPSREEMTKNQVSLSCLVKGFYPSDIAVEWESNGQPENNYKTTVPVLDSDGSFRLASYLTVDKSRWQQGNVFSCSVMHEALHNHYTQKSLSLSPGK
B2: 01F12R2 VHH Mono-Fc (Fc fusion)
chain: EVQLVESGGGLVQPGGSLRLSCAASGRTFSSYTMGWFRQAPGEEREFVSAISWSSDGTYYKYYTDTVKGRFTISRDNAETTVHLQMNSLKPEDTAVYYCAASSSGTYGDPRSEREYRYWGQGTLVTVSSSPAPELLGGPSVFLFPPKPKDTLMISRTPEVTCVVVDVSHEDPEVKFNWYVDGVEVHNAKTKPREEQYNSTYRVVSVLTVLHQDWLNGKEYKCKVSNKALPAPIEKTISKAKGQPREPQVYTKPPSREEMTKNQVSLSCLVKGFYPSDIAVEWESNGQPENNYKTTVPVLDSDGSFRLASYLTVDKSRWQQGNVFSCSVMHEALHNHYTQKSLSLSPGK
B3: 01G07R2L VHH Mono-Fc (Fc fusion)
chain: QVQLVESGGGLVQPGGSLRLSCVASGLPFSSSRMAWFAQAPGKEREFVAAIGWRGRTSYKYYADSVKGRFTVSGDNAKKTLDLQMKDLKPEDTALYFCAAHPNDDGDPRISGNYQYWGQGTQVTVSSSPAPELLGGPSVFLFPPKPKDTLMISRTPEVTCVVVDVSHEDPEVKFNWYVDGVEVHNAKTKPREEQYNSTYRVVSVLTVLHQDWLNGKEYKCKVSNKALPAPIEKTISKAKGQPREPQVYTKPPSREEMTKNQVSLSCLVKGFYPSDIAVEWESNGQPENNYKTTVPVLDSDGSFRLASYLTVDKSRWQQGNVFSCSVMHEALHNHYTQKSLSLSPGK
B4: 01C03R3LS VHH Mono-Fc (Fc fusion)
chain: B3 chain with Q1E, F29G, G52A, A63S, K79R, K89N
B5: 01F09R3 VHH Mono-Fc (Fc fusion)
chain: QVQLVESGGGLAQAGGSLTLSCAASGTAAGIDVMGWYRQTPGNSREFVARIFSNDVTHYADSVTGRFTLSRTQDKNTVSLQMNSLKPDDTGVYYCNARIWTGSTTVDYWGQGTQVTVSSSPAPELLGGPSVFLFPPKPKDTLMISRTPEVTCVVVDVSHEDPEVKFNWYVDGVEVHNAKTKPREEQYNSTYRVVSVLTVLHQDWLNGKEYKCKVSNKALPAPIEKTISKAKGQPREPQVYTKPPSREEMTKNQVSLSCLVKGFYPSDIAVEWESNGQPENNYKTTVPVLDSDGSFRLASYLTVDKSRWQQGNVFSCSVMHEALHNHYTQKSLSLSPGK
B6: 01A01R3 VHH Mono-Fc (Fc fusion)
chain: EVQLVESGGGLVQAGGSLRLSCAASGSGRTFTSYTMGWFRQAPGKEREFVSALTWADDSTYYKYYADSMKGRLTISRDNAKNTVYLQMNSLKPEDTAVYYCVATGRGLTYDPRDRRKYDYWGQGTQVTVSSSPAPELLGGPSVFLFPPKPKDTLMISRTPEVTCVVVDVSHEDPEVKFNWYVDGVEVHNAKTKPREEQYNSTYRVVSVLTVLHQDWLNGKEYKCKVSNKALPAPIEKTISKAKGQPREPQVYTKPPSREEMTKNQVSLSCLVKGFYPSDIAVEWESNGQPENNYKTTVPVLDSDGSFRLASYLTVDKSRWQQGNVFSCSVMHEALHNHYTQKSLSLSPGK
B7: 01A07R3 VHH Mono-Fc (Fc fusion)
chain: EVQLVESGGGLVQTGESLRLSCAASGRAFSDLRMAWFRQVPGKEREFVAAVEWRGSSRYYYSADSVKGRFTISRTSPKGETYLQMNGLKPEDTAVYYCAAVSPVVGDPRNSDTYNYWGQGTQVTVSSSPAPELLGGPSVFLFPPKPKDTLMISRTPEVTCVVVDVSHEDPEVKFNWYVDGVEVHNAKTKPREEQYNSTYRVVSVLTVLHQDWLNGKEYKCKVSNKALPAPIEKTISKAKGQPREPQVYTKPPSREEMTKNQVSLSCLVKGFYPSDIAVEWESNGQPENNYKTTVPVLDSDGSFRLASYLTVDKSRWQQGNVFSCSVMHEALHNHYTQKSLSLSPGK
B8: 01H10R3 VHH Mono-Fc (Fc fusion)
chain: QVQLVESGGGLVQAGGSLRLSCAASGRAFSQYTMGWFRQAPGKEREFVTAIRWSGGSIYKYYADSVKGRFTISGDNARNTVDLQMNSLKPEDTAVYYCAARMSPWGDPRGNEYDYWGQGTLVTVSSSPAPELLGGPSVFLFPPKPKDTLMISRTPEVTCVVVDVSHEDPEVKFNWYVDGVEVHNAKTKPREEQYNSTYRVVSVLTVLHQDWLNGKEYKCKVSNKALPAPIEKTISKAKGQPREPQVYTKPPSREEMTKNQVSLSCLVKGFYPSDIAVEWESNGQPENNYKTTVPVLDSDGSFRLASYLTVDKSRWQQGNVFSCSVMHEALHNHYTQKSLSLSPGK
B9: 01H10R2 VHH Mono-Fc (Fc fusion)
chain: QVQLVESGGGLVQPGGSLRLSCAASGRTSSISTMGWFRQAPGKEREFVTAIRWSGSSSYKYYADSVKGRFTISRDNARNTVYLQMNSLKPEDTAVYYCAAQMSLWRDPREIDYDYWGQGTLVTVSSSPAPELLGGPSVFLFPPKPKDTLMISRTPEVTCVVVDVSHEDPEVKFNWYVDGVEVHNAKTKPREEQYNSTYRVVSVLTVLHQDWLNGKEYKCKVSNKALPAPIEKTISKAKGQPREPQVYTKPPSREEMTKNQVSLSCLVKGFYPSDIAVEWESNGQPENNYKTTVPVLDSDGSFRLASYLTVDKSRWQQGNVFSCSVMHEALHNHYTQKSLSLSPGK
B10: 01C03R3 VHH Mono-Fc (Fc fusion)
chain: QVQLVESGGGLVQAGGSLRLSCAASGRTFSSYAMGWFRQAPGKEREFVAAIHWNGASTYRYSADSVKGRFTISRDNAKNTVYLQMNSLKPEDTAAYYCAASPPPTVGDVRDPANYDSWGQGTLVTVSSSPAPELLGGPSVFLFPPKPKDTLMISRTPEVTCVVVDVSHEDPEVKFNWYVDGVEVHNAKTKPREEQYNSTYRVVSVLTVLHQDWLNGKEYKCKVSNKALPAPIEKTISKAKGQPREPQVYTKPPSREEMTKNQVSLSCLVKGFYPSDIAVEWESNGQPENNYKTTVPVLDSDGSFRLASYLTVDKSRWQQGNVFSCSVMHEALHNHYTQKSLSLSPGK
B11: 03D02R3 VHH Mono-Fc (Fc fusion)
chain: EVQLVESGGGLAQAGGSLRLSCTASGTISKIDVMAWYRQTPGNERELVARIFSNDVTHYVDSAKGRFTLSRAQDKNTVDLQMNSLEPDDAAVYYCNAQIWSDMRGRMDTYWGQGTLVTVSSSPAPELLGGPSVFLFPPKPKDTLMISRTPEVTCVVVDVSHEDPEVKFNWYVDGVEVHNAKTKPREEQYNSTYRVVSVLTVLHQDWLNGKEYKCKVSNKALPAPIEKTISKAKGQPREPQVYTKPPSREEMTKNQVSLSCLVKGFYPSDIAVEWESNGQPENNYKTTVPVLDSDGSFRLASYLTVDKSRWQQGNVFSCSVMHEALHNHYTQKSLSLSPGK

Biological target: T1, mouse pIgR extracellular domain (ECD)
Experiment: SPR, VHH captured by anti-Fc, ECD analyte
Procedure, shortened: (§1)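 Anti-human Fc surface captured VHH at 0.5 ug/ml (~200-300 RU); running buffer HBSP with 100 ug/ml BSA, 30 μL/min. Single-cycle kinetics with ECD injected low to high from 30 nM in 3-fold dilutions, dissociation 30 min. Double-referenced data globally fit to 1:1 Langmuir model for kon, koff, KD.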

Binder	Kd [nM]
B1	3.76
B2	264
B3	0.948
B4	0.8
B5	985
B6	14
B7	1.41
B8	47.1
B9	3.45
B10	25.6
B11	126

Biological target: T2, rat pIgR extracellular domain
Experiment: SPR, VHH captured by anti-Fc, ECD analyte
Procedure, shortened: as §1

Binder	Kd [nM]
B1	1.36
B2	4.2
B3	1.44
B4	3.02
B5	70.8
B6	1.34
B7	1.24
B8	11.4
B9	2.4
B10	15.2
B11	126

Biological target: T3, human pIgR extracellular domain (ECD) (human, UniProt P01833 19-638)
T3 construct: Bought from R&D Systems (Cat 2717-PG-050); also called hpIgR ECD
T3 sequence (P01833 other isoform, or with tags, fused parts or gaps): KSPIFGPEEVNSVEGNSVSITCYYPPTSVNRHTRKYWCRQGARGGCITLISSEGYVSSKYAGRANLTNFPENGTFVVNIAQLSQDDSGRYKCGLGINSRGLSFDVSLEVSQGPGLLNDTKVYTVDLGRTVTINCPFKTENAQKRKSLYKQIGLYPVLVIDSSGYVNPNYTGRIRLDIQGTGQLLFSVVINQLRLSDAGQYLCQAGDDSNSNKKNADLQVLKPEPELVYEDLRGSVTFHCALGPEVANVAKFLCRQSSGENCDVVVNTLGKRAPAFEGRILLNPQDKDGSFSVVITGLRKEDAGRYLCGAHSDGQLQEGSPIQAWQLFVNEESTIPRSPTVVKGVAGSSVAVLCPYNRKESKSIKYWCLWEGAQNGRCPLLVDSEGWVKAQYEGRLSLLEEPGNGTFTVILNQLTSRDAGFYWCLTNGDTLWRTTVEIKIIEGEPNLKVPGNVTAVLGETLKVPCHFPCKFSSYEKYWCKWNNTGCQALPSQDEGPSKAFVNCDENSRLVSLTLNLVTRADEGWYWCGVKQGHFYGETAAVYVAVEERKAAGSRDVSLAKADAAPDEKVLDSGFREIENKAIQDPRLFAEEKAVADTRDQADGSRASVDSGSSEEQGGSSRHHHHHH
Experiment: SPR, VHH captured by anti-Fc, ECD analyte
Procedure, shortened: as §1

Binder	Kd [nM]
B1	5.37
B2	12.5
B3	3.32
B4	4.87
B5	0.397
B6	1.31
B7	0.2
B8	34
B9	5.95
B10	13.3
B11	0.391

Biological target: T4, cynomolgus monkey pIgR extracellular domain (cynomolgus monkey, UniProt A0A2K5WMU9 19-638)
T4 construct: extracellular domain
T4 sequence (A0A2K5WMU9 entry or part of it): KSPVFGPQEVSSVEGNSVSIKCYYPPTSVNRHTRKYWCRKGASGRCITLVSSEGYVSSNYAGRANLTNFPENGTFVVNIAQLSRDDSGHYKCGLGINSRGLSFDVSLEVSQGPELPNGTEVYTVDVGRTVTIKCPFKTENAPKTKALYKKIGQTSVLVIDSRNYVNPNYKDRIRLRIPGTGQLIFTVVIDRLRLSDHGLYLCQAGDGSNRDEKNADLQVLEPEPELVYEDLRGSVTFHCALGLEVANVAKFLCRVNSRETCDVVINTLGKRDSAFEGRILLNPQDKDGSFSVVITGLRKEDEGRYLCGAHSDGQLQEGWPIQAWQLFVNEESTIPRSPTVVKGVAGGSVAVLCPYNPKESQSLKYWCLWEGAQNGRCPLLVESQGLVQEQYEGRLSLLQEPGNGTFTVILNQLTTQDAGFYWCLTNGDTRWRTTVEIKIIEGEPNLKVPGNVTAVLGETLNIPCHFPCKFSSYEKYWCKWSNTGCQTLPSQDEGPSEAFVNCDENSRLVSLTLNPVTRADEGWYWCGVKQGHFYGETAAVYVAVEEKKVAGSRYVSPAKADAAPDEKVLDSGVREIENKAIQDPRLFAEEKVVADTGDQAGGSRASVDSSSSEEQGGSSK
Experiment: SPR, VHH captured by anti-Fc, ECD analyte
Procedure, shortened: as §1

Binder	Kd [nM]
B1	3.97
B2	3.17
B3	4.02
B4	2.84
B5	566
B6	4.93
B7	10.7
B8	94.6
B9	2.92
B10	22.2
B11	37.8
